Changes are numbered by the printed parent chain. In names and notes the source's numbering stands.
B1: MPK158 (antibody, V domains shown)
VH: EVQLVESGGGLVKPGGSLRLSCAASGFSISGFYMIWIRQAPGKGLEWISDISASSSYIDYADSVKGRFTISRDNGQNTVHLLMNNLRADDTGVYYCAREQTPSPGPFDLWGQGTLVTVST
VL: QPVLTQPPSVSGAPGQRVTISCTGRSSNIGAGYDVHWYQHLPGTSPKLLIYRNSNRPSGVPDRFSGSTSGTSASLAITGLQADDEADYYCQAYDRILGGWAFGGGTKLTVL
B2: MPK65-v2-v1.2 (antibody, V domains shown)
VH: QVPLVQSGAEVKKPGESLKISCKGSGYSFINYWIGWVRQMPGKGLEWMGVIYPFDSDTKYSPSFQGHVTISADKSSNTAYVQWSSLKASDTAMYYCARFTFGIAVVTDDVSGEGQAFEIWGQGTMVTVSS
VL: QIVMMQSPATLSVSPGERATLSCRASQSVAGNLAWYQQRPGQAPRLLIYGASTRATGVPARFSGSGSETEFTLTISSLQSEDFAVYYCHQYSNLPQAFGQGTRLDIK
B3: MPK201-v1.2 (antibody, V domains shown)
VH: EVQLVQSGAEVKKPGESLKISCQGSGYSFINYWIGWVRQKPGKGLEWMGIIYPFDSETKYSPSFQGHVTFSADKSINTAYVQWSSLRASDTAMYYCARFTFGLAVTTADVSGEGQAFEIWGQGTMVTVSS
VL: B2 VL with I48V, T56S, Q90H, N93D
B4: MPK201-v4.1 (antibody, V domains shown)
VH: B3 VH with E1Q, N31S
VL: B2 VL with Q1E, I48V, T56S, Q90H, N93D, L94W
B5: MPK204 (antibody, V domains shown)
VH: QVQLVESGGGLVKPGGSLRLSCEASGLSLSGYYMIWIRQAPGKGLEWISSISSSSNYIDYADSVKGRFTISRHNGQNTLYLQMNSLRVEDTAVYYCATEQTPSPGPFDLWGQGTLVTVSS
VL: QSVLTQPPSVSGAPGQRVTISCTGTSSNIGTGYDVHWYQQFPGTSPKLLIYRNTNRPSGVPDRFSGSKSGSSASLAIAGLQAEDEADYYCQSYDRSVSGWVFGGGTKLTVL
B6: MPK133 (antibody, V domains shown)
VH: QVQLVQSGGGLVKPGGSLRLSCAASEFSFSGYFMIWIRQAPGKGLEWISYISGSSTYTNYADSVKGRFTISRDNAQNTLYLEMNSLRAEDTGVYYCATEQVPSPGPFDLWGQGTLVTVSS
VL: B5 VL with T25S, T31A, T44R, K47T, K68Q, A78T, S96T, V97L, V101A, L108V
B7: MPK146 (antibody, V domains shown)
VH: QVQLVESGGGLVKPGGSLRLSCAASGFTFSGYYMIWIRQAPGKGLEWIASISGSSNYIDYADSVRGRFTISRDNARNILDLQMNSLRAGDTALYYCATEQVPSPGPFDLWGQGTLVTVSS
VL: B5 VL with T25S, S26N, I29L, T31A, S65A, S71T, A78T, V97L
B8: MPK130 (antibody, V domains shown)
VH: EVQLVESGGGLVKPGGSLTLSCEASGFSISGYYMIWVRQAPGKGLEWVSSISASDTYIDYAVSVQGRFTISRHNTKNSLYLQMSSLRVEDTGVYYCTREKVPSPGPFDCWGQGTLVTVSS
VL: QSVLTQPPSVSGAPGQRITISCTGTSSNIGAGYDVHWYQHLPGAAPRLLIYVNTNRPSGVPDRFSGARSGTSASLAITGLQAEDEADYYCQSYDRSLGGWAFGEGTKVTVL
B9: MPK176-v1.3 (antibody, V domains shown)
VH: QVQLVQSGAEVKKPGASVRVSCKASGYTLTAYGISWVRQAPGQGLEWMGWISPKHGNTHYAQRFQGRVTMTTDTSTSTAYMELRSLRPDDTAVYFCAREGVDIMAVPWYFDYWGQGTLVAVSS
VL: SYVLTQPPSVSVAPGQTARISCGGNNIGSKSVHWYQQKPGQAPVVVVYDDSKRPSGIPERFSGSNSGNTATLTISGVEAGDEADYFCQVWDSATDHWVFGGGTKLTVL
B10: RSD5-FR-GL-rIgG1 (antibody, V domains shown)
VH: QVQLVESGGGVVQPGRSLRLSCAASGFAFNNFAMHWVRQAPGKGLEWVAVVSYDGTSPYYADSVKGRFTISRDNSKNTLYLQMNSLRAEDTAVYYCARGLGSGSYSWIGYFYAMDVWGQGTTVTVSS
VL: QSALTQPASVSGSPGQSITISCTGTSSDVGGYVYVSWYQQHPGKAPKLMIYDVSNRPSGVSNRFSGSKSGNTASLTISGLQAEDEADYYCISYTDRNTVVFGGGTKLTVL
notes: Germline-reverted version of RSD5 (framework regions), recombinant IgG1; also called RSD5-FR-GL-rlgG1
B11: MPH12-v1 (VH C111/C112.2 variant of Tables 18 and 19) (antibody, V domains shown)
VH: QVQLVESGGGLVKPGGSLRLSCVASGFTFSGFYMKWIRQAPGKGLEWVSSISASGSYTNYADSVEGRFTVSRDNAKNSLFLLMSSLRAEDTAVYYCARGDSYSGASASHGEFFHKWGQGTLVTVSS
VL: QSVLTQPPSVSGAPGQRVTISCTGSDSNIGADFDVHWYQQLPGTAPKLLIYGNINRPSGVPDRFSGSRSGTSAFLAITRLQAEDEADYYCQSYDRSLHYVFGAGTKVTVL
B12: MPH12-v16 (VH-FRGL-S63A/VL-D25S) (antibody, V domains shown)
VH: B11 VH with V23A, S63A, V70I, F80Y, L82Q, S84N, S103C, S108C
VL: B11 VL with D26S
notes: also called MPH12 VH-FRGL-S63A / MPH12 VL-D25S
B13: MPH12-v2 (VH C111/C112.2 variant of Tables 18 and 19) (antibody, V domains shown)
VH: B11 VH with S103A, S108A
VL: B11 VL

Columns and labels:
[1] = biological target: fusion glycoprotein of the MPV D280 used in the neutralization assay of Example 3 (metapneumovirus (strain )); test: cell-based or functional assay
[2] = biological target: fusion glycoprotein of the RSV used in the neutralization assay of Example 1 (respiratory syncytial virus (strain not …)); test: cell-based or functional assay
[3] = biological target: T1, RSV F B N208D (RSV B); test: FACS, % binding to RSV F B variants
T1 construct: whole, on cells

[4] = biological target: T2, RSV F B K68N-N208S (RSV B); test: FACS, % binding to RSV F B variants
T2 construct: whole, on cells

[5] = biological target: T3, RSV F B, B Ref (RSV B); test: FACS, % binding to RSV F B variants
T3 construct: whole, on cells

[6] = biological target: T4, RSV F B S443P (RSV B); test: FACS, % binding to RSV F B variants
T4 construct: whole, on cells; also called mutant S443P

[7] = biological target: T5, RSV F B N208S (RSV B); test: FACS, % binding to RSV F B variants
T5 construct: whole, on cells; also called mutant N208S

[8] = biological target: T6, RSV F B K68N-N201S (RSV B); test: FACS, % binding to RSV F B variants
T6 construct: whole, on cells

[9] = biological target: T7, RSV F B N201S (RSV B); test: FACS, % binding to RSV F B variants
T7 construct: whole, on cells

[10] = biological target: T8, RSV-A F (RSV A); test: BLI
T8 construct: also called RSV F A

[11] = biological target: T9, RSV-B F (RSV B); test: BLI
T9 construct: also called RSV F B

[12] = biological target: T10, RSV F A L203I (RSV A, strain A2, UniProt P03420 26-574); test: FACS, % binding to RSV F A variants
T10 construct: whole, on cells

[13] = biological target: T11, RSV F A G446E (RSV A, strain A2, UniProt P03420 26-574); test: FACS, % binding to RSV F A variants
T11 construct: whole, on cells

[14] = biological target: T12, RSV F A S443P-K445N (RSV A, strain A2, UniProt P03420 26-574); test: FACS, % binding to RSV F A variants
T12 construct: whole, on cells

[15] = biological target: T13, RSV F A, A2 Ref (RSV A, strain A2, UniProt P03420 26-574); test: FACS, % binding to RSV F A variants
T13 construct: whole, on cells

[16] = biological target: RSV A fusion glycoprotein (F), virus of the neutralisation assays of Tables 54 and 57 (RSV A); test: cell-based or functional assay
[17] = biological target: biot-RSV-F wt (respiratory syncytial virus (RSV)); test: BLI (Octet), biotinylated F on SA sensors, mAb 5 µg/ml
[18] = biological target: fusion glycoprotein (F) of MPV A GFP (Tables 41 and 43) (metapneumovirus A); test: cell-based or functional assay
[19] = biological target: fusion glycoprotein (F) of RSV B GFP (Tables 41 and 42) (respiratory syncytial virus B); test: cell-based or functional assay
[20] = biological target: fusion glycoprotein (F) of RSV A GFP (Tables 41 and 42) (respiratory syncytial virus A); test: cell-based or functional assay
[21] = biological target: fusion glycoprotein (F) of MPV A1/6621 (metapneumovirus A1/6621); test: cell-based or functional assay
[22] = biological target: DS-Cav1 RSV F (respiratory syncytial virus (RSV); …, UniProt P13843 26-513); test: ELISA on RSV-F Ds-Cav1, 1 ug/ml
[23] = biological target: T14, MPV fusion glycoprotein with the D280N mutation (MPV-F N280) (metapneumovirus); test: biolayer interferometry (BLI), rIgG1 with M428L/N434S
T14 construct: also called MPV F D280N; MPV-F D280N

[24] = biological target: T15, MPV fusion glycoprotein without the D280N mutation (MPV-F D280) (metapneumovirus); test: as above
T15 construct: also called MPV F Non-D280N; MPV-F wt

[25] = biological target: RSV fusion glycoprotein (RSV-F) (respiratory syncytial virus); test: as above
[26] = biological target: T16, DS-Cav1 RSV F (respiratory syncytial virus); test: ELISA on DS-Cav1 RSV F
T16 construct: also called DC-VCav1

[27] = biological target: fusion glycoprotein (F) of the RSV used in the GFP-based neutralization assay of Table 23 (respiratory syncytial virus); test: cell-based or functional assay
[28] = biological target: fusion glycoprotein (F) of the MPV (non-D280N) used in the GFP-based neutralization assay of Table 23 (metapneumovirus); test: cell-based or functional assay

Row | Binder | MPV D280 Neutralization - IC50 [1] [ng/mL] | RSV Neutralization - IC50 [2] [ng/mL] | % binding [3] [%] | % binding [4] [%] | % binding [5] [%] | % binding [6] [%] | % binding [7] [%] | % binding [8] [%] | % binding [9] [%] | Kd [10] [nM] | Kd [11] [nM] | % binding [12] [%] | % binding [13] [%] | % binding [14] [%] | % binding [15] [%] | IC50, neutralization of RSVA [16] [ng/mL] | also measured
1 | B1 | 6 | 18.2 | – | – | – | – | – | – | – | – | – | – | – | – | – | – | –
2 | B2 | – | – | 0.47 | 0.047 | 56.4 | 33.8 | 0.041 | 30.8 | 35.9 | 0.205 | 0.581 | 18 | 25.4 | 33.5 | 56 | 4.38 | –
3 | B3 | – | – | 0.015 | 12.1 | 61.3 | 45.8 | 14.4 | 47.3 | 47.7 | 0.211 | 0.161 | 40 | 29 | 36 | 66.9 | 2.88 | –
4 | B4 | – | – | 0.018 | 0.048 | 51.9 | 31.5 | 0.016 | 30 | 33 | 0.292 | 0.552 | 13.1 | 18 | 2700 | 54.1 | 4.35 | –
5 | B5 | 6 | 12.1 | – | – | – | – | – | – | – | – | – | – | – | – | – | – | –
6 | B6 | 3.5 | 21.1 | – | – | – | – | – | – | – | – | – | – | – | – | – | – | –
7 | B7 | 5.4 | 16.6 | – | – | – | – | – | – | – | – | – | – | – | – | – | – | –
8 | B8 | 4.3 | 20.6 | – | – | – | – | – | – | – | – | – | – | – | – | – | – | –
9 | B9 | – | – | 53.6 | 57.9 | 39.9 | 33.8 | 60.4 | 60 | 60.2 | 0.136 | 0.0256 | 56.1 | 0.017 | 0.036 | 78.1 | 3.94 | –
10 | B10 | – | – | – | – | – | – | – | – | – | – | – | – | – | – | – | – | Kd [17]: 1.46 nM; IC50 (ng/ml), MPV A GFP neutralization [18]: > 2000 ng/mL; IC50 (ng/ml), RSV B GFP neutralization [19]: 1.14 ng/mL; IC50 (ng/ml), RSV A GFP neutralization [20]: 1.27 ng/mL
11 | B11 | – | – | – | – | – | – | – | – | – | – | – | – | – | – | – | – | MPV IC50 (nM), neutralization of MPV A1/6621 [21]: 5.87 nM; EC50 (read off the curve) [22]: ~100 ng/mL
12 | B12 | – | – | – | – | – | – | – | – | – | – | – | – | – | – | – | – | Kd [23]: 0.54 nM; Kd [24]: 0.038 nM; Kd [25]: 0.41 nM; EC50 [26]: 15.6 ng/mL; RSV IC 50 (ng/mL), GFP-based in vitro neutralization [27]: 50.3 ng/mL; MPV IC50 (ng/mL), GFP-based in vitro neutralization [28]: 26.8 ng/mL
13 | B13 | – | – | – | – | – | – | – | – | – | – | – | – | – | – | – | – | MPV IC50 (nM), neutralization of MPV A1/6621 [21]: 0.552 nM; EC50 (read off the curve) [22]: ~100 ng/mL
